Measurements reported in patent US20160264650A1 (Regeneron, published 2016).
Numbering of substitutions follows the chain as printed.

B1: H1M3134N (antibody, V domains shown)
VH: QVQLVESGGDVVQPGRSLRLSCAASGFTFSGHGMHWVRQAPGKGLEWVALILYDGSSEDYTDSVKGRFTVSRDNSKNTLYLQMNSLRAEDTAVYYCARGSILNRPFDYWGQGTLVTVSS
VL: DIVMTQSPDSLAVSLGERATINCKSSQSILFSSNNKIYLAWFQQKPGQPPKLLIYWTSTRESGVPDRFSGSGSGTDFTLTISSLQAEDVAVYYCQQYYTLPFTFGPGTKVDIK
notes: also called HIM3134N
B2: H1H3324P (antibody, V domains shown)
VH: EVQLVESGGGLVQPGGSLRLSCAASGFTFSSYDMHWVRQVIGKGLEWVSAIGTVGDTYYAGSVKGRFTISRENAKNSLYLQMNSLRAGDTAVYYCARDRGGANIYSFYYGMDVWGQGTTVTVSS
VL: DIQMTQSPSSLSVSVGDRVTITCRASQDISNYLAWYQQKPGKVPKLLIYAASTLQSGVPSRFSGSGSGTDFTLTISSLQPEDVATYFCQKYNSAPFTFGPGTKVDIKR
B3: H1H3328P (antibody, V domains shown)
VH: B2 VH with R19T, G26R, S31N, V40A, I41T, E72D, N73D, N103G, I104T
VL: B2 VL with V13A, I75V, F87Y, N92T
B4: H1M3117N (antibody, V domains shown)
VH: EVQLLESGGGLAQPGGSLRLSCAASGFNFGTHDMSWVRQAPGKGLEWVSGLTSTGGSASSADSVKGRFTISRDNSKNILYLQMNSLRAEDTAVYYCAKTFNWNSYFDYWGQGTLVTVSS
VL: EIVLTQSPGTLSLSPGERATLSCRASQSISTYYLAWYQQKPDQPPRLLIYGTSSRATGIPDRFSGSGSGTDFTLTISRLDPEDFAVYYCQQYGNSLYTFGQGTKLEIK
B5: H1H3325P (antibody, V domains shown)
VH: EVQLVESGGGLVQPGGSLRLSCAASGFTFNSFVMSWVRQAPGKGLEWVSAISGYGGSTYYADSMKGRFTVSRDNSKNTLYLQMNSLRAEDTAVYYCAKDHKDFYASGSYFNRDYYYGMDVWGQGTTVTVSS
VL: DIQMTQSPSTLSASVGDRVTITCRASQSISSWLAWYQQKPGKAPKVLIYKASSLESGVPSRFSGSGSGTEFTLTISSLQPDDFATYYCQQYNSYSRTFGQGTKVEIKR
B6: H2aM3067N (antibody, V domains shown)
VH: QIQLVESGGGVVQPGRSLRLSCVASGFTLSGHGMHWVRQAPGKGLEWVAFISFDGGHQDYTDAAEGRFTISRDNSKNTLYLEMVSLRPADTAIYYCVKGSDSSRGFGYWGRGILVTVSS
VL: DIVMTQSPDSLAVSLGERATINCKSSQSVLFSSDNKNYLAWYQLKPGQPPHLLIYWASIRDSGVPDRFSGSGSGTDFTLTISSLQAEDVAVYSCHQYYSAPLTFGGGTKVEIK
notes: also called H2M3067N; H1M3067N
B7: H1H3335P (antibody, V domains shown)
VH: EVQLVESGGGLVRPGGSLRLSCAASGFTFRIYAMSWVRQAPGKGLEWVSGISGSGDNTYYTDSVKGRFIISRDNSKSTLYLQMNSLRAEDTAVYYCARGWELLNYWGQGTLVTVSS
VL: DIQMTQSPSSLSAFVGDRVTITCRASQDISNHLAWFQQKPGKVPKSLIYAASSLQSGVPSKFSGSGSGTDFTLTISSLQPEDFATYYCQQYGLYPPTFGPGTKVDIKR
B8: H1H3347P (antibody, V domains shown)
VH: EVQLVESGGGLVQPGGSLRLSCVASGFTFTSYAMSWVRQAPGRGLQWVSAIGGSGDSIYYADSVKGRFTISRDNSKNTLYLQMDSLRAEDTAVYYCARGWELLNYWGQGTLVTVSS
VL: B7 VL with F14S, S30G, H32F, V43A, Q55K, F62I, S76N, G92N, L93I
B9: H1H3337P (antibody, V domains shown)
VH: B7 VH with R13Q, R30S, D56G, N57R, T61A, I69T, S77N, A88V, Y105F
VL: B7 VL with F14S, D28G, H32N, V43A, Q55K, S76N, Q89H, G92N, L93S
B10: H1H3339P (antibody, V domains shown)
VH: B7 VH with R13Q, A24V, R30S, G50A, N57K, T61A, I69T, S77N, Y94F
VL: B7 VL with F14S, Q27L, H32F, K42T, V43A, A50S, Q55R, S56T, G92S, L93S
B11: H1H3343P (antibody, V domains shown)
VH: EVQLVESGGGLVQPGGSLRLSCVASGFNFRIYAMSWVRQAPGKGPEWVSGISGSGDNTYYAASVKGRFTVSRDNSKNTLYLQMTSLRAEDTAVFYCARGWELLNYWGQGTLVTVSS
VL: B7 VL with F14S, Q27L, S30G, H32F, K42T, V43A, A50S, S56T, G92N, L93S
B12: H1H3344P (antibody, V domains shown)
VH: EVQLVESGGGLVQPGGSLRLSCAASGFTFKIYAMSWVRQGPGKGLEWVSAISGNGDKTYYTDSVQGRFTISRDNSKNTLFLQMNSLRAEDTAIYYCARGWELLNYWGQGTLVTVSS
VL: B7 VL with F14S, V15I, H32S, V43A, K61R, G92I, L93P, Y94F
B13: H1H3354P (antibody, V domains shown)
VH: QVQLQQSGPGLVKPSQTLSLTCAISGDSVSSNSAAWNWIRQSPSRGLEWLGRTYYRSKWYHDYAFSVKSRILINPDTSKNLFSLQVNSVTPEDTAVYYCARDRRSYFDYWGQGTLVTVSS
VL: EIVLTQSPATLSLSPGERATLSCRASRSVSSSLAWYQQKPGQAPRLLIYDASNRATGIPARFSGGGSGTDFTLTISSLEPEDFAVYYCQQRNNWPPTFGQGTKLEIKR
B14: Control I (anti-toxin A antibody with the variable domains of the "3D8" antibody of U.S. Pat. No. 7,625,559 and US2005/0287150) (antibody, human IgG1, kappa, V domains shown)
VH: QVQLVESGGGVVQPGRSLRLSCAASGFSFSNYGMHWVRQAPGKGLEWVALIWYDGSNEDYTDSVKGRFTISRDNSKNTLYLQMNSLRAEDTAVYYCARWGMVRGVIDVFDIWGQGTVVTVSS
VL: DIQMTQSPSSVSASVGDRVTITCRASQGISSWLAWYQHKPGKAPKLLIYAASSLQSGVPSRFSGSGSGTDFTLTISSLQPEDFATYYCQQANSFPWTFGQGTKVEIKR
notes: also called control 1; Control Antibody I

The binders below were run against T1, CBD-toxin A-Fc (Clostridium difficile, UniProt P16154 1848-2710) (assay: SPR Biacore, mAb captured, 100 nM CBD-A-Fc flowed).
T1 construct: also called CBD-A; C-term Toxin A

Binder	binding (RU)
B1	-1
B2	269
B3	354
B4	-3
B5	17
B6	-2
B7	13
B8	42
B9	-17
B10	19
B11	11
B12	5
B13	-19

These binders were tested against T2, Clostridium difficile toxin B, soluble full-length (TechLab) (Clostridium difficile, UniProt P18177 2-2366) (assay: SPR Biacore T200, 37C, mAb capture).
T2 construct: also called tcdB

Binder	Kd [nM]	T½ [min]	koff [s⁻¹]	kon [M⁻¹ s⁻¹]	binding result
B7	2.34	28	0.000414	177000	–
B8	2.4	14	0.000813	339000	–
B9	3.93	12	0.000945	241000	–
B10	1.95	22	0.000537	276000	–
B11	1.58	26	0.000448	284000	–
B12	4.24	13	0.000865	204000	–
B13	–	–	–	–	no binding (tested: toxin at 5 to 10 nM)

Each binder was assayed against T2, Clostridium difficile toxin B, soluble … (assay: cell-based or functional assay).

Binder	IC50, Vero cell viability (neutralization), Trial 1, 0.1 pM Toxin B [pM]	IC50, Vero cell viability (neutralization), Trial 2, 0.1 pM Toxin B [pM]	IC50, Vero cell viability (neutralization), Trial 3, 0.03 pM Toxin B [pM]
B7	730	380	120
B8	130	90	25
B9	1730	980	320
B10	480	270	90
B11	280	200	50
B12	580	400	40

These binders were tested against T3, Clostridium difficile toxin A, soluble full-length (TechLab) (Clostridium difficile, UniProt P16154 1-2710) (assay: SPR Biacore T200, 37C, mAb capture).
T3 construct: also called tcdA

Binder	Kd [nM]	T½ [h]	koff [s⁻¹]	kon [M⁻¹ s⁻¹]
B2	0.0139	54.9	3.5e-06	251000
B3	0.0957	5.27	3.66e-05	382000
B5	0.105	3.48	5.51e-05	527000
B14	0.0859	0.967	3.24e-05	377000

Each binder was assayed against T1, CBD-toxin A-Fc (assay: SPR Biacore, CBD-A-Fc captured, 500 nM mAb flowed).

Binder	binding (RU)
B1	195
B2	224
B3	227
B4	350
B5	3
B6	237
B7	5
B8	-13
B9	8
B10	2
B11	3
B12	5
B13	-2

What follows are binders tested against T4, CBD-toxin B-Fc (Clostridium difficile, UniProt P18177 1851-2366) (assay: SPR Biacore, CBD-B-Fc captured, 500 nM mAb flowed).
T4 construct: also called CBD-B; C-term Toxin B

Binder	binding (RU)
B2	-8
B3	-6
B5	-8
B7	-6
B10	-2
B11	-4
B12	-2

The binders below were run against T5, C-term receptor Binding Domain (CBD) of toxin A (Clostridium difficile, UniProt P16154 1848-2710) (assay: SEC (Superose 6) of CBD and mAb mixture).
T5 construct: also called CBD-A; recombinant CBD of toxin A

Binder	binding result
B5	no binding (tested: CBD at ~500 nM, CBD:Mab 1:5 and 1:20)

What follows are binders tested against T6, C-term receptor Binding Domain (CBD) of toxin B (Clostridium difficile, UniProt P18177 1851-2366) (assay: SEC (Superose 6) of CBD and mAb mixture).
T6 construct: also called CBD-B

Binder	binding result
B7	no binding (tested: CBD at ~500 nM, CBD:Mab 1:5 and 1:20)
B8	no binding (tested: CBD at ~500 nM, CBD:Mab 1:5 and 1:20)
B9	no binding (tested: CBD at ~500 nM, CBD:Mab 1:5 and 1:20)
B10	no binding (tested: CBD at ~500 nM, CBD:Mab 1:5 and 1:20)
B11	no binding (tested: CBD at ~500 nM, CBD:Mab 1:5 and 1:20)
B12	no binding (tested: CBD at ~500 nM, CBD:Mab 1:5 and 1:20)
B13	no binding (tested: CBD at ~500 nM, CBD:Mab 1:5 and 1:20)

What follows are binders tested against T3, Clostridium difficile toxin A, soluble … (assay: cell-based or functional assay).

Binder	IC50, Vero cell viability (neutralization), Trial 4, 32 pM Toxin A [pM]	IC50, Vero cell viability (neutralization), Trial 3, 32 pM Toxin A [pM]	IC50, Vero cell viability (neutralization), Trial 1, 32 pM Toxin A [pM]	IC50, Vero cell viability (neutralization), Trial 2, 32 pM Toxin A [pM]	IC50, Vero cell viability (neutralization), Trial 5, 25 pM Toxin A [pM]
B1	38	–	–	–	–
B2	33	–	–	–	–
B3	–	112	–	–	–
B4	–	–	29	11	–
B5	33	–	–	–	–
B6	–	–	64	44	–
B14	–	–	–	–	199

What follows are binders tested against T1, CBD-toxin A-Fc (assay: SPR Biacore, mAb capture and CBD-Fc capture formats).

Binder	binding result
B5	no binding
B7	no binding
B10	no binding
B11	no binding
B12	no binding

What follows are binders tested against T4, CBD-toxin B-Fc in the same assay as above.

Binder	binding result
B8	no binding
